We go through three molecules from patent US10947270B2, “Targeted prodrug cytosine deaminase fusion carrier and application thereof” (National Yang-Ming University, priority 2015, dated 2021).

Data set [1] can be described thus: Enzyme activity and kinetic analysis of yCD series recombinant proteins (5-FC converted into 5-FU). In kind it is biochemical. Conditions: 50 nM protein. The protocol:
FIGS. 2A-2B show the enzyme activities of RGD4C-yCD, yCD, RGD4C-yCD/UPRT and yCD/UPRT proteins to convert 5-FC to 5-FU. 50 nM of RGD4C-yCD, yCD, RGD4C-yCD/UPRT or yCD/UPRT protein reacted with increasing concentrations of 5-FC in phosphate buffered saline solutions. […] The measured data was used to plot the enzyme kinetic curve that takes the substrate concentration [S] as the x-axis and takes the initial reaction rate V0 as the y-axis,
The enzyme activity of 5-FC converted into 5-FU by RGD4C-yCD, yCD, RGD4C-yCD/UPRT and yCD/UPRT is performed. The recombinant protein concentration (50 nM) added with 5-FC at different concentrations. The 5-FC consumption and the generated amount of 5-FU is calculated. The measured data is taken as the x-axis by the substrate concentration [S]; the initial reaction rate V0 is the kinetic curve by making a diagramthe with y-axis (see FIG. 2A and FIG. 2B); the non-linear regression is made by the prism software according to the Michaelis-Menten equation; calculate the enzyme kinetic parameter Km and Vmax. […] It is speculated that the yCD function in each fusion protein is similar, but yUPRT may affect the effects of yCD and 5-FC.

A further data set deals with integrin αvβ3 receptor (Homo sapiens, UniProt P05106+P06756). Description: ELISA binding assay of yCD series recombinant protein to integrin αvβ3 receptor. To be noted: for decrease of binding to integrin αvβ3 by RGDfv peptide: RGDfv peptide at same concentration. The protocol:
FIGS. 3A-3B show the binding affinity and specificity of RGD4C-yCD, yCD, RGD4C-yCD/UPRT and yCD/UPRT proteins to integrin αvβ3. The binding affinities of RGD4C-yCD, yCD, RGD4C-yCD/UPRT and yCD/UPRT proteins to integrin αvβ3 were determined by ELISA assay using horseradish peroxidase (HRP)-tagged anti-His6 antibody (FIG. 3A). The dissociation constant Kd is obtained by prism software with curve fitting method. […] (*compared with untreated RGDfv group, P<0.05)
The specific binding ability of RGD4C-yCD, yCD, RGD4C-yCD/UPRT and yCD/UPRT recombinant protein to integrin αvβ3 receptor is analyzed by ELISA binding assay, plotted with prism software and made with curve fitting to find the dissociation constant Kd value.
(In general: In an ELISA, binding on a coated surface is turned into a signal by an enzyme label.)

In another data set the test system is HUVEC cells. As to the kind of experiment: Specific binding assay of yCD series recombinant protein and cell (cell ELISA). In kind it is cell-based, human. To be noted: HUVEC versus MCF-7. As to the method: (§1) FIG. 5A, FIG. 5B, and FIG. 5C are respectively represented HUVEC cells, U87MG cells, MCF-7 cells seeded in 96-well plates for 24 hours, and then RGD4C-yCD, yCD, RGD4C-yCD/UPRT and yCD/UPRT with different concentrations are added for cells binding assay. After reacted with anti-His-HRP antibody and TMB substrate, ELISA reader (OD450 nm) is used to detect the amount of recombinant protein bound to the cells, and the binding curve is drawn. The nonlinear curve of the prism software is used to make a diagram and calculate the dissociation constant (Kd).
(§2) The anti-His6-Tag-HRP antibody and TMB show the color reagent to detect the amount of recombinant protein bound to the cell, then the dissociation constant Kd value of the recombinant protein and the integrin αvβ3 receptor is calculated and a binding curve is drawn. […] The cell binding ability of RGD4C-yCD for HUVEC and U87MG are about 7.7 folds and 6.8 folds higher than MCF-7 respectively. The cell binding ability of RGD4C-yCD/UPRT for HUVEC and U87MG are about 6.9 folds and 5.8 folds higher than MCF-7 respectively. […] It is shown that RGD4C-yCD and RGD4C-yCD/UPRT are specially bound with integrin αvβ3 through RGD4C sequence.

The next data set deals with HUVEC and U87MG cells. As to the kind of experiment: Fluorescence microscopy of binding and distribution of yCD series fusion proteins. Conditions: 500 nM protein, 2 hours. In kind it is cell-based, human. As to the method: (FIG. 8A) or 37° C. […] (FIG. 8C) or 37° C. (FIG. 8D) for 2 hours, and then the fluorescent staining is performed for the cells, and the confocal fluorescence microscope is used to observe the distribution of protein in cells. (Green signal: β3 integrin; red signal: anti-His6-tag (also represents the signal of the fusion protein); blue signal: Hoechst 33342 cell nuclear stain) (Calibration scale: 20 μm).
HUVEC and U87MG cells are co-cultured with culture medium containing 500 nM RGD4C-yCD and RGD4C-yCD/UPRT protein at 4° C. and 37° C. for 2 hours, then the cells are stained with fluorescence, and the distribution in the cell is observed by conjugated fluorescence microscopy.

Data set [2] is described as follows: Enzyme kinetic analysis of yCD series proteins after DTPA modification, marking and purification. The data set is classed as biochemical. From the text: The enzyme activity of yCD is not affected by DTPA modification.
FIGS. 24A-24B show the kinetic curve of yCD series protein modified, labeled and purified by DTPA. The enzyme activity of the two proteins is not affected by the labeling conditions. After adding EDTA with a 10-fold molar excess of protein, and it is competitively purified, In-DTPA-yCD compared with the original enzyme activity.
The curve and enzyme kinetic parameters (see FIG. 18 and Table 13) are fitted by the […] protein enzyme kinetics through the Michaelis-Menten formula in the Graph prism program.
Before the protein is labeled by radioisotope, its enzyme function must be determined, and based on the original enzyme function, it should be examined whether it will be affected during the radioactive marking process. The curve and enzyme kinetic parameters of protein are fitted by the Michaelis-Menten formula in the Graph prism program. […] Whether the yCD and RGD4C-yCD protein detected by the same method will be affected under the conditions of DTPA modification, marking and purification. […] After the completion of the radioactive metal mark, it is necessary to add EDTA of 10-fold protein Moire number and react at room temperature for 1 hour to compete for the radioactive metal isotope indium which is not chelated on DTPA. The EDTA in this step also has the chance to chelate the metal zinc ion of the enzyme catalytic center, the enzyme activity is impaired, so it is necessary to analyze the enzyme activity of In-DTPA-yCD and In-RGD4C-yCD protein after competition with EDTA. After the EDTA competitive reaction is completed, the enzyme kinetics analysis can be carried out by reducing the EDTA molecule weight through membrane centrifugation method and by replacing the solution with pH 7.0. […] The curve and receptor binding ability parameters of the protein and integrin αvβ3 are fitted under the conditions of DTPA modification, marking and purification by the One site-Specific binding formula in the Graph prism program (see FIG. 25 and Table 18). […] Although the two proteins after marking are greatly affected by the enzyme activity, they still have good binding ability to the integrin αvβ3 receptor. In consideration of the indispensability of EDTA for radiochemical purity, it retains a considerable amount of enzyme activity. In addition, the effect of integrin αvβ3 receptor binding ability is minimal, in combination of cell uptake, biodistribution and angiography experiment, focusing on the evaluation of target results, and the subsequent biological experiment is still carried out by the marking and purification conditions.

Data set [3] relates to HUVEC, U87MG and MCF-7 cells. Description: Specific binding assay of yCD series recombinant protein and cell, statement for the three cells. In kind it is cell-based, human. As to the method:
as §1, §2

Sequence of integrin αvβ3 receptor (P06756 31-889 limits assumed): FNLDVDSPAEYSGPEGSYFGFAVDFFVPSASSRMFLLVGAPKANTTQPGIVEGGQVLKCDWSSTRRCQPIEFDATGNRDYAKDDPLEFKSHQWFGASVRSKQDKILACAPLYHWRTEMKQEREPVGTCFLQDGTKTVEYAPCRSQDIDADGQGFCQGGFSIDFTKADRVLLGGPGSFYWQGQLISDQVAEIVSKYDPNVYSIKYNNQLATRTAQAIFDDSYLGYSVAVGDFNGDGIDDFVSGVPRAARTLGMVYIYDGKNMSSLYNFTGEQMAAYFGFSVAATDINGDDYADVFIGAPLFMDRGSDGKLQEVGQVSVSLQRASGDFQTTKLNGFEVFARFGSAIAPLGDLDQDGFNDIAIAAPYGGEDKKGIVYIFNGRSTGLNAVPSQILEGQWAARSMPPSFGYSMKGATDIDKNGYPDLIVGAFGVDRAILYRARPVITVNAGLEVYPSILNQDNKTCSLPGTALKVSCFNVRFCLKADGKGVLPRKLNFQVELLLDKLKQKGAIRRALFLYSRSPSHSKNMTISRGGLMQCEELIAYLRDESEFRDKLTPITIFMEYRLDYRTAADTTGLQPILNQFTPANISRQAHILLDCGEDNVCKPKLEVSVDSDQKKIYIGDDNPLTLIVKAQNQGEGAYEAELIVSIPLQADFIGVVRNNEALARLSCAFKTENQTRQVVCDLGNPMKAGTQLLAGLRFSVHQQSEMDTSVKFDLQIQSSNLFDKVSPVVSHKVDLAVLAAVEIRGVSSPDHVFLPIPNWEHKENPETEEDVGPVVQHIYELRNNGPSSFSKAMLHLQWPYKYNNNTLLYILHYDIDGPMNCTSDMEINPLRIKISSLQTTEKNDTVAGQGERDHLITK
Sequence of integrin αvβ3 receptor (P06756 891-1048 partner limits assumed): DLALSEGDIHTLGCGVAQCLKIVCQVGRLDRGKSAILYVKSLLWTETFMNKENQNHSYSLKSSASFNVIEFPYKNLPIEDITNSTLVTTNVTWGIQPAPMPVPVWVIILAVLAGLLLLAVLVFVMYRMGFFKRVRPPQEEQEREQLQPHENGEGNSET
Sequence of integrin αvβ3 receptor (P05106 27-788): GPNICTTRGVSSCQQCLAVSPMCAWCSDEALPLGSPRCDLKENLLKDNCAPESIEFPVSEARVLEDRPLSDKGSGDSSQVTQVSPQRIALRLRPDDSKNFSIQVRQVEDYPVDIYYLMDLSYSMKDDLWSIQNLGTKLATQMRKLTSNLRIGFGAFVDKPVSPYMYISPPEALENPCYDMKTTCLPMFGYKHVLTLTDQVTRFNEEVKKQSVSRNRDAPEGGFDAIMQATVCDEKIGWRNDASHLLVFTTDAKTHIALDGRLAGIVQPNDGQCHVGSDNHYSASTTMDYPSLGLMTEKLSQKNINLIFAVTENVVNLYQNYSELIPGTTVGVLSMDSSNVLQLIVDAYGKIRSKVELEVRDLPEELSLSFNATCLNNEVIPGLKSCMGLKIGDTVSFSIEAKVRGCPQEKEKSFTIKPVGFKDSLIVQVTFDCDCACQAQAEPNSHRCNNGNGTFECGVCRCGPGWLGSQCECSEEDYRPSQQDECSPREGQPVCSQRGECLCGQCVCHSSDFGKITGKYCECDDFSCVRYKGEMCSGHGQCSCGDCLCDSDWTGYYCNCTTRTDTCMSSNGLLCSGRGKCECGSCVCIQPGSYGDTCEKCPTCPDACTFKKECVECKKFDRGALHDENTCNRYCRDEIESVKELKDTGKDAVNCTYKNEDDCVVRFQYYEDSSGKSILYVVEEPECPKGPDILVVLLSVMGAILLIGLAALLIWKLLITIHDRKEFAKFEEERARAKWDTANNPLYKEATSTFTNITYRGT

B1: RGD4C-yCD/UPRT: targeted prodrug enzyme fusion protein (SEQ ID NO: 4) (protein)
chain: MACDCRGDCFCVTGGMASKWDQKGMDIAYEEAALGYKEGGVPIGGCLINNKDGSVLGRGHNMRFQKGSATLHGEISTLENCGRLEGKVYKDTTLYTTLSPCDMCTGAIIMYGIPRCVVGENVNFKSKGEKYLQTRGHEVVVVDDERCKKIMKQFIDERPQDWFEDIGEASEPFKNVYLLPQTNQLLGLYTIIRNKNTTRPDFIFYSDRIIRLLVEEGLNHLPVQKQIVETDTNENFEGVSFMGKICGVSIVRAGESMEQGLRDCCRSVRIGKILIQRDEETALPKLFYEKLPEDISERYVFLLDPMLATGGSAIMATEVLIKRGVKPERIYFLNLICSKEGIEKYHAAFPEVRIVTGALDRGLDENKYLVPGLGDFGDRYYCVLEHHHHHH
modifications: RGD4C_yCD_yUPRT
For orientation: Km means the substrate concentration at which the rate is half of its maximum. Usually Vmax stands for the rate approached at saturating substrate. With B1, the Km in data set [1] (calculated by 5-FC consumption) and in data set [1] (calculated by 5-FU formation) was 1200 ± 200 µM throughout. Besides, the Vmax in data set [1] (calculated by 5-FC consumption) was 147.0 ± 5.9 µM/min; in data set [1] (calculated by 5-FU formation), 109.2 ± 10.1 µM/min. The “decrease of binding to integrin αvβ3 by RGDfv peptide” value with integrin αvβ3 receptor is 50%. For the same molecule, the “cell binding ability higher than MCF-7” value with HUVEC cells is on record as “about 6.9 folds”. Further, the “binding and distribution in cells” value in the data set with HUVEC and U87MG cells (4° C.) is “only bound to HUVEC and U87MG cell surface”; in the data set on HUVEC and U87MG cells (37° C.) it was “enter the inside of HUVEC and U87MG cells through endocytosis”.

B2: RGD4C-yCD: targeted prodrug enzyme fusion protein of RGD4C and yCD (SEQ ID NO: 3) (protein)
chain: MACDCRGDCFCVTGGMASKWDQKGMDIAYEEAALGYKEGGVPIGGCLINNKDGSVLGRGHNMRFQKGSATLHGEISTLENCGRLEGKVYKDTTLYTTLSPCDMCTGAIIMYGIPRCVVGENVNFKSKGEKYLQTRGHEVVVVDDERCKKIMKQFIDERPQDWFEDIGELEHHHHHH
modifications: RGD4C_yCD
Regarding B2, the Michaelis constant (Km) in data set [1] (calculated by 5-FC consumption) was 600 ± 100 µM; in data set [1] (calculated by 5-FU formation) it was 900 ± 100 µM; in data set [2] it was 1000 ± 73.2 µM. The Vmax in data set [1] (calculated by 5-FC consumption) is 179.5 ± 4.7 µM/min; in data set [1] (calculated by 5-FU formation), 167.7 ± 4.6 µM/min; in data set [2], 288.7 ± 8.883 µM/min. Moreover, the “decrease of binding to integrin αvβ3 by RGDfv peptide” value with integrin αvβ3 receptor is listed as 50%. Moreover, the “cell binding ability higher than MCF-7” value in the data set with HUVEC cells is given as “about 7.7 folds”. In addition, the “binding and distribution in cells” value in the data set with HUVEC and U87MG cells (4° C.) was “only bound to HUVEC and U87MG cell surface”; in the data set with HUVEC and U87MG cells (37° C.), “enter the inside of HUVEC and U87MG cells through endocytosis”.

B3: yCD/UPRT: recombinant fusion of yCD and yUPRT without target molecule (protein)
chain: MVVTGGMASKWDQKGMDIAYEEAALGYKEGGVPIGGCLINNKDGSVLGRGHNMRFQKGSATLHGEISTLENCGRLEGKVYKDTTLYTTLSPCDMCTGAIIMYGIPRCVVGENVNFKSKGEKYLQTRGHEVVVVDDERCKKIMKQFIDERPQDWFEDIGEASEPFKNVYLLPQTNQLLGLYTIIRNKNTTRPDFIFYSDRIIRLLVEEGLNHLPVQKQIVETDTNENFEGVSFMGKICGVSIVRAGESMEQGLRDCCRSVRIGKILIQRDEETALPKLFYEKLPEDISERYVFLLDPMLATGGSAIMATEVLIKRGVKPERIYFLNLICSKEGIEKYHAAFPEVRIVTGALDRGLDENKYLVPGLGDFGDRYYCVLEHHHHHH
For B3, in data set [1] (calculated by 5-FC consumption), the Km is 1200 ± 100 µM and the maximal velocity (Vmax) is 137.2 ± 3.6 µM/min. Further, in data set [1] (calculated by 5-FU formation), the Km is 1200 ± 100 µM and the Vmax was 112.7 ± 8.1 µM/min. Besides, the “binding to integrin αvβ3” value in the data set with integrin αvβ3 receptor (ELISA) is recorded as “cannot be bound”. In addition, the “binding to the three cells” value in data set [3] is “weak binding”. The “binding and distribution in cells” value in the data set on HUVEC and U87MG cells (4° C.) is reported as “can not be effectively bound”.
